Assay results taken from the supplement of paper PMC9170038.

Tested on: MS2 coat protein
Test: apparent KD of MS2 coat protein; designed switch direction (-1 OFF switch, 1 ON switch): -1; higher = weaker reporter binding
Method in brief: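 Apparent KD, taken as the median over clusters for each design, was obtained by curve-fitting normalised cluster fluorescence. Designed RNA switches had been transcribed on Illumina chips by stalled E. coli RNA polymerase and titrated with SNAP-549-labelled MS2 coat protein, doubling from 0.7 or 1.5 nM to 3 µM.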

[1] = input ligand: microRNA oligo, concentration not stated
[2] = Eterna round: R95, input ligand: microRNA oligo, concentration not stated
[3] = Eterna round: R95, input ligand: FMN 200 uM
[4] = Eterna round: R95, input ligand: none

| Sequence | apparent KD of MS2 coat protein (input ligand: FMN 200 uM) [nM] | apparent KD of MS2 coat protein [1] [nM] | apparent KD of MS2 coat protein (input ligand: none) [nM] | apparent KD of MS2 coat protein [2] [nM] | apparent KD of MS2 coat protein [3] [nM] | apparent KD of MS2 coat protein [4] [nM] |
| --- | --- | --- | --- | --- | --- | --- |
| AAAAAAAACAAGCUUAGGGACAUGAGGAUCACCCAUGUUCGUCUUAUAAAAAUAAAAAUAAAAAACAAAAAAUAAAA [Sensor V2: 53] (Eterna round: R96, puzzle: Sensor v2, turn-off variant) | 22.5 | 128 | 24.1 |  |  |  |
| AAAAAAAGACAAGAGGAGAAUCGUCUUAAAAAUCCUCAGACAUGAGGAUCACCCAUGUAAAAUGAUCGAAAGAUCAA [Mat - Sensor v2 - ver2 - JL mod - D42] (Eterna round: R96, puzzle: Sensor v2, turn-off variant 2) | 39.7 | 40 | 40.6 |  |  |  |
| AAAAAACAAGCUUUUUGAAACAUGAGGAUCACCCAUGUCUUAUAAAAUAAAAAUAAAAAUAAAAAUAAAAUAAAAAA [Sensor V2: 80 Random] (Eterna round: R96, puzzle: Sensor v2, turn-off variant) | 36.2 | 67.9 | 37.4 |  |  |  |
| AAAAAACAAGGAUAUACGAAGGAUGGUUAUCUUAAUUUUUGACAUGAGGAUCACCCAUGUAGAAGGUGUUAAAA [JR_Exclusion2_Sub010] (puzzle: Exclusion 2) |  |  |  | 34.8 |  |  |
| AAAAAACAUGAGGAUCACCCAUGUAAGGAUAUCUAAAAUAAAAGAAAAAUAAAGAAAAGGAGAAGGUACAAGGA [JL wbt mod 25] (Eterna round: R96, puzzle: Exclusion 1) | 32.5 | 23.4 | 29.8 |  |  |  |
| AAAAAACAUGAGGAUCACCCAUGUGAGGAUAUGCUAAAAAAAUCCGCAUGAAAAAAUAGCAGAAGGCACAUAAA [PK2] (Eterna round: R96, puzzle: Exclusion 1) | 93.5 | 27.2 | 36.2 |  |  |  |
| AAAAAGCUGAGAGGAUAUGGUGCCGAAACGGUGCUAGAAGGCUUUGCAAAAAAACAUGAGGAUCACCCAUGUUCAUGUAGAGAA [AK ExNG1-1.2] (Eterna round: R96, puzzle: Exclusion NG 1) | 15.8 | 11.8 | 19.6 |  |  |  |
| AAAACACAUGAGGAUCACCCAUGUGAGGAUAUGUCCAUAUUCGGCAAAUCGGAUAUGGACAGAAGGCACAUAAA [JR_Exclusion1_Sub014] (puzzle: Exclusion 1) |  |  |  | 48.9 | 54.7 | 39.7 |
| AAAACGUCAGGAUAUCCAAUAUAUGACAUGAGGAUCACCCAUGUUUCCACUCGUACCUCCGGAGAAGGGACUAAUA [Ex5 #84] (Eterna round: R97, puzzle: Exclusion 5) | 34.7 |  | 38.2 |  |  |  |
| AAAACGUGAGGAUAUACUGUGAGAUCUCAAGGUACGUUAAGACAUGAGGAUCACCCAUGUAGAAGGCGCCAAAA [Eternabot (Original) Solution 15] (Eterna round: R97, puzzle: Exclusion 2) | 57.3 |  | 30.9 |  |  |  |
| AAAACUGCCCAUAACCGCAAGCUUUUUGCUUGUCUUACCACAUGAGGAUCACCCAUGUGACAUGGGCUCCUUAUAAA [Arixeerat] (puzzle: Sensor v3, turn-off variant 2) |  |  |  | 8.53 | 14.1 | 12 |
| AAAACUGCCCAUGACCGCAAGCUUUUUGCUUGUCUUACCACAUGAGGAUCACCCAUGUGUCAUGGGCUCCUUAUAAA [Tisoanor] (puzzle: Sensor v3, turn-off variant 2) |  |  |  | 10.8 | 12.7 | 11.3 |
| AAAAGAGGAGGAUAUGCAAACAAUGUAAAAGUGAAAGUAAAACAUGAGGAUCACCCAUGUAGAAGGCCUGAAAA [nah] (puzzle: Exclusion 2) |  |  |  | 20.4 | 20 | 20.2 |
| AAAAGGAUAGGAUAUGCUCUAGGACACUUGAGGAUCACCCAAGUGUCGGCAAGGUCCUAGGCAGAAGGAUCUGGCA [Onordibi] (Eterna round: R97, puzzle: Exclusion 5) | 88.3 |  | 29.9 |  |  |  |
| AAAAGGCAGGGAGGAUAUGCUUGCCUGGGUCGUCUUCAAACAUGAGGAUCACCCAUGUAGUCGACGCAGAAGGCCCUCAAAGAA [Mat - Exclusion NG 2 - Mod of JL - D62] (Eterna round: R96, puzzle: Exclusion NG 2) | 37.7 | 40.8 | 57.2 |  |  |  |
| AAAAGGCGAGGAUAUACAGACCUCGGAAAAUCAAAGCAGAGACAUGAGGAUCACCCAUGUAGAAGGCGCAACAA [Geerbiorer] (Eterna round: R97, puzzle: Exclusion 2) | 20.8 |  | 15.9 |  |  |  |

| Sequence | apparent KD of MS2 coat protein (input ligand: FMN 200 uM) [nM] | apparent KD of MS2 coat protein [1] [nM] | apparent KD of MS2 coat protein (input ligand: none) [nM] | apparent KD of MS2 coat protein [2] [nM] | apparent KD of MS2 coat protein [3] [nM] | apparent KD of MS2 coat protein [4] [nM] |
| --- | --- | --- | --- | --- | --- | --- |
| AAAAUAAAAGUCAGGAUAUUCCUACAACGACUAAGGAAGAAGGGACAUGAGGAUCACCCAUGUGGUCUUCCGAA [Onesti] (puzzle: Brourd's mod of Exclusion 4) |  |  |  | 17.8 | 42.5 | 15.1 |
| AAAAUAAAGAUGCCUUUAAACAUGAGGAUCACCCAUGUGAGUAAGGAUAUCGGAACCAAUCGCGACGAGAAGGUACUCGCGUGU [Relela] (Eterna round: R96, puzzle: Exclusion NG 3) | 12.1 | 11.1 | 15.7 |  |  |  |
| AAAAUGGUCUAGGAUAUGACAAAUCUGAGCACGUCAGAAGGAGACACAUGAGGAUCACCCAUGUGGGUGCGAAA [Erteedza] (Eterna round: R96, puzzle: Exclusion 6) |  | 29.3 |  |  |  |  |
| AAAAUGGUCUAGGAUAUGACAAAUCUGAGCACGUCAGAAGGAGACACAUGAGGAUCACCCAUGUGGGUGCGAAA [Erteedza] (puzzle: Exclusion 6) |  |  |  | 31.8 | 324 | 35.2 |
| AAAAUGUAAGGAUAUAGCCGGAACCCAGGGUUUGGACCCGGCUAGAAGGUACAUGAGGAUCACCCAUGUAAGAA [Excls4-VII] (puzzle: Exclusion 4) |  |  |  | 17.4 |  |  |
| AAAAUGUCAGGAUAUUGUUAGUUUAGUUGUUUGUAUUAGUUCGAGAAGGGACAUGAGGAUCACCCAUGUGAAAA [Ex4 #68] (Eterna round: R97, puzzle: Exclusion 4) | 42.5 |  | 35.8 |  |  |  |
| AAACAAACGGCAGGAUAUCCUCGUCAACACCACAAGUCCACUCGGACAUGAGGAUCACCCAUGUAGGAGAAGGGUCAGAAAUAC [ExNG2 4th] (Eterna round: R96, puzzle: Exclusion NG 2) | 37.2 | 24.6 | 37.1 |  |  |  |
| AAACAGGGAGGAUAUACAUAGAUCCUCUAACCUAAUAGGUCACAUGAGGAUCACCCAUGUAGAAGGCCCUUAGG [Biinbebi] (puzzle: Exclusion 2) |  |  |  | 14.3 |  |  |
| AAACAGGGAGGAUAUACAUAGAUCCUCUAACCUAAUUGGUCACAUGAGGAUCACCCAUGUAGAAGGCCCUUAGG [Enquanes] (puzzle: Exclusion 2) |  |  |  | 13.6 |  |  |
| AAACCACAUGAGGAUCACCCAUGUGAGGAUAUGAUACUAUGUACUUCGGUACAUAGUAUCAGAAGGCAUAUGAA [Ex1-3: 48] (puzzle: Exclusion 1) |  |  |  | 24.4 |  |  |
| AAACCCUGAGGAUAUACAUAACAACAAAGCCUCACGUGCCAACAUGAGGAUCACCCAUGUAGAAGGCGGGCCAA [Mod R3 Insanara 14 - Jieux - Exclusion 2] (Eterna round: R97, puzzle: Exclusion 2) | 37.3 |  | 15.1 |  |  |  |
| AAACGGCAGGGAGGAUAUGCUUACCUGGGUCGUCUUCGAACAUGAGGAUCACCCAUGUAGUCGACGCAGAAGGCCCUCAAAGCC [JL ViennaUCT Ontiis mod 2] (Eterna round: R96, puzzle: Exclusion NG 2) | 47.4 | 17.1 | 21.5 |  |  |  |
| AAACUACUAGGAUAUACAACGGUGUCCUAACUACUAAGAAAACAUGAGGAUCACCCAUGUAGAAGGAGUAGUGA [Lauslabe] (Eterna round: R96, puzzle: Exclusion 2) |  | 28.6 |  |  |  |  |
| AAACUCCCGGCAACCGGGAACAUGAGGAUCACCCAUGUGGCGUGACUCAUACGGGCUUUUUGUUCGUUUUAUUCACG [Xeisororer] (puzzle: Sensor v3, turn-off variant 1) |  |  |  | 27.7 | 53.4 | 63.6 |
| AAACUGAGGCUUUGCUUUAGUCGUACAUGAGGAUCACCCAUGUAGGAUAUGGUAGGCUUUGCUUACCAGAAGGACAGAGUGAUC [JL EXNG3 1.20] (Eterna round: R96, puzzle: Exclusion NG 3) | 80.5 | 404 | 279 |  |  |  |
